# Assay results taken from PMC2903445 (Proteins, 2010).
# Like-named read-outs stand apart in the source and are kept apart here. Ends that are not written are not given here.
# Assays:
# Assay in all cases: fluorescence polarisation
# [1] = molecular target: Gαi1 K248E, S252L (human, UniProt P63096 26-354, K248E | S252L)
# [2] = molecular target: T1, Gαi1 F223V, L249F (human, UniProt P63096 26-354, F223V | L249F)
# [3] = molecular target: T2, Gαi1 (N-terminal-truncated, hexahistidine-tagged human Gαi1), wild type (human, UniProt P63096 26-354)
# [4] = molecular target: T1, Gαi1 F223V, L249F; remark: listed apart in the source
# [5] = molecular target: Gαi1 F223V, L249F, Q147L, E245L (human, UniProt P63096 26-354, F223V | L249F | Q147L | E245L)
# [6] = molecular target: T2, Gαi1 (N-terminal-truncated, …); remark: listed apart in the source
# [7] = molecular target: Gαi1 I78S, A111Q (human, UniProt P63096 26-354, I78S | A111Q)
# [8] = molecular target: Gαi1 E245L, L249A (human, UniProt P63096 26-354, E245L | L249A)
# Chain of Gαi1 E245L, L249A (P63096 26-354 E245L/L249A): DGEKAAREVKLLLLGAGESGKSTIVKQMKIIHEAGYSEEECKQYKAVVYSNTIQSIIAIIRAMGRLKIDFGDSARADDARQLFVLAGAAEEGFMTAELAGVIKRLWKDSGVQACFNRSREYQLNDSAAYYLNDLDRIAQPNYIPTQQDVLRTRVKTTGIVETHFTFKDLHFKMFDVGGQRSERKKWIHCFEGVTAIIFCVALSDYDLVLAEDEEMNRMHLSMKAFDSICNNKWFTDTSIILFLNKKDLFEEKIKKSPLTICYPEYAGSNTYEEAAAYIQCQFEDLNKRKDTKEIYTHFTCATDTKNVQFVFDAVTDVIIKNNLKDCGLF
# T2 sequence (P63096 26-354): as the sequence (P63096 26-354 E245L/L249A) above, with L220E, A224L counted along it
# Chain of Gαi1 K248E, S252L (P63096 26-354 K248E/S252L): as the sequence (P63096 26-354 E245L/L249A) above, with L220E, K223E, A224L, S227L counted along it
# T1 sequence (P63096 26-354 F223V/L249F): as the sequence (P63096 26-354 E245L/L249A) above, with F198V, L220E, A224F counted along it
# Chain of Gαi1 I78S, A111Q (P63096 26-354 I78S/A111Q): as the sequence (P63096 26-354 E245L/L249A) above, with I53S, A86Q, L220E, A224L counted along it
# Chain of Gαi1 F223V, L249F, Q147L, E245L (P63096 26-354 Q147L/F223V/E245L/L249F): as the sequence (P63096 26-354 E245L/L249A) above, with Q122L, F198V, A224F counted along it
Binder,Kd [1] [nM],Kd [3] [nM],also measured
"DIEGLVEKLNRVQSSGAHDQRGLLRKEDLVLPEFLQ (domain or fragment, UniProt O08773 496-531, looked up, also: 6-IAF fluorescein on the unique Cys (not in given chain)) [GoLoco motif of RGS14 (496-531, Tenascin fusion) L503K]",80 ± 10,–,–
"DIEGLVELANRVQSSGAHDQRGLLRKEDLVLPEFLQ (domain or fragment, UniProt O08773 496-531, looked up, also: 6-IAF fluorescein on the unique Cys (not in given chain)) [GoLoco motif of RGS14 (496-531, Tenascin fusion) L504A]",–,2400 ± 1000,Kd [2]: > 5000 nM; Kd [4]: ~5000 nM
"DIEGLVELANRVQSSGAHDQRGLLRKEDLVLPEWLQ (domain or fragment, UniProt O08773 496-531, looked up, also: 6-IAF fluorescein on the unique Cys (not in given chain)) [GoLoco motif of RGS14 (496-531, Tenascin fusion) L504A, F529W]",–,> 5000,Kd [5]: 40 ± 100 nM; Kd [6]: ~5000 nM
"DIEGLVELLNRVQSSGAHDQRGLTRKEDLVLPEFLQ (domain or fragment, UniProt O08773 496-531, looked up, also: 6-IAF fluorescein on the unique Cys (not in given chain)) [GoLoco motif of RGS14 (496-531, Tenascin fusion) L519T]",–,16000 ± 5000,Kd [7]: > 20000 nM

# Second part, led by results:
Kd [1] [nM],Kd [3] [nM],Binder,also measured
320 ± 60,100 ± 20,"DIEGLVELLNRVQSSGAHDQRGLLRKEDLVLPEFLQ (domain or fragment, UniProt O08773 496-531, looked up, also: 6-IAF fluorescein on the unique Cys (not in given chain)) [GoLoco motif of RGS14 (residues 496-531) expressed as a fusion to Tenascin, wild type]",–
–,1040 ± 60,"DIEGLVELLNRMQSSGAHDQRGLLRKEDLVLPEFLQ (domain or fragment, UniProt O08773 496-531, looked up, also: 6-IAF fluorescein on the unique Cys (not in given chain)) [GoLoco motif of RGS14 (496-531, Tenascin fusion) V507M]",Kd [8]: 50 ± 10 nM
